Test results as given in paper PMC10708888, “Evolution towards simplicity in bacterial small heat shock protein system” (eLife, 2023).
Changes are numbered by the printed parent chain. Numbers in names are those of the source.

Assays:
[1] = target: heat-aggregated E. coli proteins; experiment: biolayer interferometry (BLI); conditions: value read at the end of the association phase (~60 min), read off a plot
[2] = target: the molecule itself; experiment: dynamic light scattering; 10 µM sHsp in buffer F (50 mM Tris pH 7.5, 150 mM KCl, 20 mM MgCl2, 2.5 mM DTT); oligomer size measured at 25 °C and 44 °C in repeated cycles
[3] = target: T1, His-tagged luciferase, heat-aggregated on the BLI sensor (firefly, UniProt P08659 1-550 = luciferase); experiment: BLI; ForteBio BLItz; His-tagged luciferase aggregated on the sensor; 5 µM sHsp (preincubated 10 min at 44 °C) bound for 10 min, then buffer F or Hsp70 system (0.7 µM DnaK, 0.28 µM DnaJ, 0.21 µM GrpE, 5 mM ATP) for 1 hr; room temperature; conditions: both partners purified
T1 construct: firefly luciferase, His-tagged construct of Obuchowski et al., 2019; anchoring layer attached to NTA sensors in 4.5 M urea, then aggregate formed at 44 °C; also called aggregated luciferase; luciferase aggregates; source: purified as described previously (Obuchowski et al., 2019)
T1 sequence (P08659 whole entry): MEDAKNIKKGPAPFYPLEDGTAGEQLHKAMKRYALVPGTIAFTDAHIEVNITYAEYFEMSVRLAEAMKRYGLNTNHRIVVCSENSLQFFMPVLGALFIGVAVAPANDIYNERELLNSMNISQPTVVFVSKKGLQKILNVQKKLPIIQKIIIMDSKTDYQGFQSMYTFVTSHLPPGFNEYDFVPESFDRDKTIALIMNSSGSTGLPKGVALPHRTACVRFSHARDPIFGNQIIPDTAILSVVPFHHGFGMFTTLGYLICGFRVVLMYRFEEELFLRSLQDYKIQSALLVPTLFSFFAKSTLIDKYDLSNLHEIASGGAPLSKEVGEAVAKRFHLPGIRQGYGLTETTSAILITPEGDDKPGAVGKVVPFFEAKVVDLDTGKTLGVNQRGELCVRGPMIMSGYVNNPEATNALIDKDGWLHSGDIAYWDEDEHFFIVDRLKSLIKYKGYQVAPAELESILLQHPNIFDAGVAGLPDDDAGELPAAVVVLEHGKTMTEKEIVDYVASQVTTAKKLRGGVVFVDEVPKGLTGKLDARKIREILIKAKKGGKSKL

With “IbpA from Erwinia amylovora (from UniProt A0ABX7MII2) H67Q; D110G” the response ([1]; parent: est. 0.91) was 1.4 nm.

Work on “IbpA from Escherichia coli (from UniProt P0C054) Q66H; G109D” yielded a response ([1]; parent: est. 2.7) of 1.5 nm.

B1: IbpA_(E.coli) Q66H G109D (natural protein, E. coli, UniProt P0C054 1-137, looked up)
chain: MRNFDLSPLYRSAIGFDRLFNHLENNQSQSNGGYPPYNVELVDENHYRIAIAVAGFAESELEITAHDNLLVVKGAHADEQKERTYLYQGIAERNFERKFQLAENIHVRDANLVNGLLYIDLERVIPEAKKPRRIEIN
notes: IbpA, small heat shock protein of E. coli, with AncA1-like substitutions; source: purified
B1: binds [2]; binds [3].

B2: IbpA from Escherichia coli (natural protein, E. coli, UniProt P0C054 1-137, looked up)
chain: B1 chain with H66Q, D109G
notes: IbpA, small heat shock protein of E. coli; also called IbpA_(E. coli); IbpAEc; source: purified as described previously (Ratajczak et al., 2009)
B2: binds [3].
